Results: FireProtDB (doi:10.1002/pro.2449)

Details: pH 7, transition: 2, reversible: yes, whole UniProt chain shown; for denaturant m value / denaturant midpoint (higher = more stable) / unfolding free energy: 25 °C, Urea; for Tm / unfolding enthalpy (calorimetric): Thermal, DSC
[1] = Borreliella burgdorferi, CD, Sodium Phosphate Buffer
[2] = Aspergillus oryzae (strain ATCC 42149 / RIB 40), MOPS
[3] = Kitasatospora aureofaciens, MOPS

B1: Variable large protein wild type, Q5DVG3 (protein)
chain: MNTKKISSAILLTTFFVFINCKSQVADKDDPTNKFYQSVIQLGNGFLDVFTSFGGLVAEAFGFKSDPKKSDVKTYFTTVAAKLEKTKTDLNSLPKEKSDISSTTGKPDSTGSVGTAVEGAIKEVSELLDKLVKAVKTAEGASSGTAAIGEVVDNAAAAKAADKDSVTGIAKGIKEIVEAAGGSKKLKAAAAKGENNKGAGKLFGKAGDAAHGDSEAASKAAGAVSAVSGEQILSAIVKAAAAGDQEGKKPGEAKNPIAAAIGEGDGDAEFNQDGMKKDDQIAAAIALRGMAKDGKFAVKNDEKGKAEGAIKGAAESAVRKVLGAITGLIGDAVSSGLRKVGDSVKAASKETPPALNK
In the case of B1, the denaturant m value [1] is reported as 3.86 kcal/mol/M, the “denaturant midpoint (higher = more stable)” value [1] is reported as 1.19 M and the unfolding free energy [1] is reported as 4.6 kcal/mol.

B2: Guanyl-specific ribonuclease T1 wild type, P00651 (protein)
chain: MMYSKLLTLTTLLLPTALALPSLVERACDYTCGSNCYSSSDVSTAQAAGYQLHEDGETVGSNSYPHKYNNYEGFDFSVSSPYYEWPILSSGDVYSGGSPGADRVVFNENNQLAGVITHTGASGNNFVECT
In the case of B2, the denaturant m value [2] is reported as 1.17 kcal/mol/M, the “denaturant midpoint (higher = more stable)” value [2] is reported as 5.2 M and the unfolding free energy [2] is reported as 6.1 kcal/mol. The Tm [2] was 52.5 °C and the “unfolding enthalpy (calorimetric)” value [2] was 107 kcal/mol.

B3: Guanyl-specific ribonuclease Sa wild type, P05798 (protein)
chain: DVSGTVCLSALPPEATDTLNLIASDGPFPYSQDGVVFQNRESVLPTQSYGYYHEYTVITPGARTRGTRRIITGEATQEDYYTGDHYATFSLIDQTC
In the case of B3, the Tm [3] is reported as 48.4 °C and the “unfolding enthalpy (calorimetric)” value [3] is reported as 92 kcal/mol.
